In patent US11219695:

How the values were obtained:
[1] = system: ZFN SBS 47171 (left/right albumin ZFN, FokI fusion) (synthetic construct); assay: cell_activity; conditions: ZFN pair with P2; HepG2/C3A, 300K/600K vg/cell, donor A; 39.81% with donor B; half-site not stated
[2] = system: ZFN SBS 47898 (also printed as SB 47931 in the transduction method) (synthetic construct); assay: cell_activity; conditions: ZFN pair with P1; HepG2/C3A, 300K/600K vg/cell, donor A; partner named 47898 or 47931 in text; half-site not stated

GCACTAAGGAAAGTGCAAAGTAACTTAGAGTGACTGAAACTTCACAGAATAGGGTTGAAGATTGAATTCATAACTATCCCAAAGACCTATCCATTGCACTATGCTTTATTTAAAAACCACAAAACCTGTGCTGTTGATCTCATAAATAGAACTTGTATTTATATTTATTTTCATTTTAGTCTGTCTTCTTGGTTGCTGTTGATAGACACTAAAAGAGTATTA (double strand)
activity [1]: 43.5 % indels | activity [2]: 43.5 % indels
